Results on 1 molecule are retold here after US11643670B2, “Methods of enhancing chromosomal homologous recombination” (Massachusetts Institute of Technology, priority 2018, dated 2023).

In experiment [1] the test system is Chd2 locus. The experiment is described as follows: Chd2^R1684H knock-in by PNI/CPI with RAD51, genotyping of F0 pups. It is filed as in vivo, mouse. The conditions noted are these: 18 F0 pups, PNI and CPI, RAD51 protein 10 ng/μL. As to the method:
(§1) tracrRNA, crRNAs, and ssODNs were synthesized by Integrated DNA Technologies (TABLE 1). All injection mixtures were prepared in a final volume of 50 μL according to the following methodology: Using RNase-free water, reagents, and consumables, crRNA (final concentration 0.61 μM), tracrRNA (final concentration 0.61 μM), and ultrapure Tris-HCl, pH 7.39 (final concentration 10 mM, ThermoFisher) were mixed and incubated at 95° C. for 5 minutes. The mixtures were cooled to room temperature for 10 minutes on the benchtop, and then, EnGen Cas9-NLS S. pyogenes (New England Biolabs) was added to a final concentration of 30 ng/μL. The mixtures were incubated at 37° C. for 15 minutes before adding any remaining components: ssODN (final concentration 3 ng/μL or 30 ng/μL), RAD51 (Creative Biomart, final concentration 10 ng/μL). Injection mixtures were stored on ice and briefly heated to 37° C. prior to injection. For experiments utilizing RS-1, embryos were cultured in KSOM-AA (EMD Millipore MR-121-D) with […] RS-1 (Sigma) dissolved in DMSO or DMSO (Sigma, 1:1000) for 24 hours, washed, and cultured in EmbryoMax FHM HEPES Buffered Medium (Sigma) until collection for genotyping.
Female mice (4-5 weeks old, C57BL/6N) were superovulated by IP injection of PMS (5 IU/mouse, three days prior to microinjection) and hCG (5 IU/mouse, 47 hours after PMS injection) and then paired with males. […]

Experiment [2] relates to Tyr^C89S locus. The experiment is described as follows: Tyr^C89S knock-in by three-component CRISPR, genotyping/albino phenotype of F0 pups. The format is in vivo, mouse. How it is done:
as §1
For all experiments except those described in FIG. 6, the male pronucleus was injected. Injections performed for the CPI portion of FIG. 6 were targeted to the cytoplasm. […]

Experiment [3] relates to RAD51 puncta. Description: Immunocytochemistry for RAD51 puncta in zygotes. The format is cell-based, mouse.
Method: Zygotes were fixed overnight at 4° C. in 4% PFA+0.1% Tween-20 in PBS and then briefly transferred to acidified Tyrode's (Sigma T1788) to remove the zona. After washing in PBS+0.1% Tween-20 (PBST), zygotes were permeabilized in PBS+1% Triton X-100 for 1 hour at 4° C. and then blocked for 1 hour at room temperature in blocking solution (PBS+3% BSA+5% normal goat serum). Primary antibody (rabbit anti-RAD51, Abcam ab63801, 1:500) was diluted in blocking solution and applied to coverslips overnight at 4° C. Cells were washed 3 times in PBST before application of secondary antibody (goat anti-rabbit IgG conjugate, Alexa Fluor 488, ThermoFisher A-11008) diluted in blocking solution for 1 hour at room temperature. Nuclei were counterstained with DAPI and coverslips were mounted to slides with Fluoromount Aqueous Mounting Medium (Sigma F4680). Cells were imaged on an Olympus Fluoview FV1000 confocal microscope with a 60× oil immersion objective and variable digital zoom. Raw image files were exported to FIJI^41 for Z-projection (sum slices), channel splitting, and scale bar generation.
Nonetheless, to more directly test the timing of zygotic ICHR, immunocytochemistry (ICC) was performed for RAD51 in uninjected, RAD51-injected, Cas9-injected (with Chd2-targeting crRNA), and Cas9- and RAD51-injected zygotes at three time points: G1 [9 hours post-fertilization (hpf), 1-hour post-injection (hpi)], G2 (14hpf, 6hpf, post S-phase), and M-phase (16hpf, 8hpi).

B1: RAD51: recombinant human strand exchange protein RAD51 (Creative Biomart RAD51-134H), transcript variant 4 (protein, UniProt Q06609 2-339, looked up)
DNA repair protein RAD51 …: AMQMQLEANADTSVEEESFGPQPISRLEQCGINANDVKKLEEAGFHTVEAVAYAPKKELINIKGISEAKADKILAEAAKLVPMGFTTATEFHQRRSEIIQITTGSKELDKLLQGGIETGSITEMFGEFRTGKTQICHTLAVTCQLPIDRGGGEGKAMYIDTEGTFRPERLLAVAERYGLSGSDVLDNVAYARAFNTDHQTQLLYQASAMMVESRYALLIVDSATALYRTDYSGRGELSARQMHLARFLRMLLRLADEFGVAVVITNQVVAQVDGAAMFAADPKKPIGGNIIAHASTTRLYLRKGRGETRICKIYDSPCLPEAEAMFAINADGVGDAKD
As to B1, in experiment [1], the “homozygous KI efficiency” value is on record as 55.5% and the “overall KI efficiency (pups with ≥1 KI allele/total pups)” value amounted to 61.1%. For the same molecule, the “pups with albino phenotype from homozygous KI of the Tyr^C89S allele” value in experiment [2] (F0 pups with RAD51, 12% without) was determined as 44.4%. For the same molecule, the “homozygous KI rate relative to injection without RAD51” value in experiment [2] (Tyr locus) was “more than doubled”. In addition, in experiment [3] (G2 zygotes), the “number of RAD51 puncta per zygote” value was “single”. Also, in experiment [3] (number of zygotes, G2 (14hpf)), the “zygotes Negative for RAD51 puncta” value is on record as 25 and the “zygotes Positive for RAD51 puncta” value turned out to be 6.
